Target: biotinylated DNP-Ab (anti-DNP antibody modified with biotinamidocaproate N-hydroxysuccinimide ester)
Test: quartz crystal microbalance; avidin injected onto biotinylated DNP-Ab held on the dinitrosalicylic acid antigen monolayer

avidin (from UniProt P02701 25-152) was tested, and the crystal frequency change Δf was -120 Hz.

Source: patent US7135295
